Values joined by “and” are separate entries in the source; they are usually repeats but may differ in a detail not shown here. Equal values may be shown once.
Test: Small angle X-ray scattering
Format: physicochemical, M. tuberculosis
Details: for Rg [from Guinier] / Rg [from P(r)]: BM29 ESRF, 10°C; for Rg [from Guinier]: 50 mM Tris pH 8.0, 200 mM NaCl, 2 mM βME; for Rg [from P(r)]: pH 8.0

Substance: MtbLigA+Nicked DNA: MtbLigA in complex with 27-mer nicked DNA (S1)
- Rg [from Guinier]: 4.49±0.07 nm
- Rg [from P(r)]: 4.49±0.06 nm

Substance: MtbLigA: M. tuberculosis NAD^+-dependent DNA ligase A, full-length
- Rg [from Guinier]: 5.22±0.08 nm
- Rg [from P(r)]: 5.20 nm and 5.20±0.06 nm
- Rg in presence of nicked DNA (presence of nicked DNA substrate (S1), from P(r)): 4.49 nm

Reference: paper PMC7530888 (Nucleic Acids Research, 2020)
